Laboratory results reported in PMC12362409.

Columns and labels:
[1] = target: TRAF3 (UniProt Q13114); assay: anti-Myc co-IP, Flag immunoblot; conditions: reference: wild type mMAVS; sites S186,S220
[2] = target: TRAF2 (UniProt Q12933); assay: anti-Myc co-IP, Flag immunoblot; conditions: reference: wild type mMAVS; sites S186,S220

binding against the reference [1]: weaker
binding against the reference [2]: weaker
Substance: mouse MAVS (mMAVS) (from UniProt Q8VCF0) S186A/S220A (2SA)
